Measured values reported in FireProtDB (doi:10.1021/bi00815a015).
Several values for one entry are separate records, joined by “and”; a condition that tells them apart may be missing. Identical values can stand only once.

Details: Aspergillus oryzae (strain ATCC 42149 / RIB 40), Thermal, DSC, whole UniProt chain shown
[1] = pH 0.36, glycine 0.2 N, HCl, reversible: yes
[2] = pH 1.05, HCl, NaCl 0.2 N, reversible: yes
[3] = pH 2.02, glycine 0.2 N, reversible: yes
[4] = pH 2.8, glycine 0.2 N, reversible: yes
[5] = pH 3.28, glycine 0.2 N, reversible: yes
[6] = pH 4.04, acetate 0.2 N, reversible: no
[7] = pH 5, acetate 0.2 N, reversible: no
[8] = pH 6.23, acetate 0.2 N, reversible: no
[9] = pH 7, None, NaCl 0.2 N, reversible: no
[10] = pH 7.8, None, NaCl 0.2 N, reversible: no

B1: Guanyl-specific ribonuclease T1 wild type, P00651 (protein)
chain: MMYSKLLTLTTLLLPTALALPSLVERACDYTCGSNCYSSSDVSTAQAAGYQLHEDGETVGSNSYPHKYNNYEGFDFSVSSPYYEWPILSSGDVYSGGSPGADRVVFNENNQLAGVITHTGASGNNFVECT
Tm (pH 0.36, HCl, reversible: yes): 25 °C | unfolding enthalpy (calorimetric) (pH 0.36, HCl, reversible: yes): 48.7 kcal/mol | Tm [1]: 31.5 °C | heat capacity change of unfolding [1]: 1.9 kcal/mol/K | unfolding enthalpy (calorimetric) [1]: 61.2 kcal/mol | unfolding enthalpy (van 't Hoff) [1]: 62 kcal/mol | Tm [2]: 25 °C | unfolding enthalpy (calorimetric) [2]: 49.1 kcal/mol | Tm [3]: 31.2 °C | heat capacity change of unfolding [3]: 1.98 kcal/mol/K | unfolding enthalpy (calorimetric) [3]: 65.6 kcal/mol | unfolding enthalpy (van 't Hoff) [3]: 67 kcal/mol | heat capacity change of unfolding [4]: 2.11 kcal/mol/K | unfolding enthalpy (calorimetric) [4]: 87.7 kcal/mol and 54.8 kcal/mol | unfolding enthalpy (van 't Hoff) [4]: 68 kcal/mol | Tm [5]: 25 °C | unfolding enthalpy (calorimetric) [5]: 63.4 kcal/mol | heat capacity change of unfolding [6]: 2.08 kcal/mol/K | unfolding enthalpy (calorimetric) [6]: 126 kcal/mol and 69.2 kcal/mol | unfolding enthalpy (van 't Hoff) [6]: 64 kcal/mol | heat capacity change of unfolding [7]: 2.25 kcal/mol/K | unfolding enthalpy (calorimetric) [7]: 151 kcal/mol and 77.2 kcal/mol | unfolding enthalpy (van 't Hoff) [7]: 60 kcal/mol | heat capacity change of unfolding [8]: 2.05 kcal/mol/K | unfolding enthalpy (calorimetric) [8]: 156 kcal/mol and 81.2 kcal/mol | unfolding enthalpy (van 't Hoff) [8]: 66 kcal/mol | heat capacity change of unfolding [9]: 2.07 kcal/mol/K | unfolding enthalpy (calorimetric) [9]: 168 kcal/mol and 92.9 kcal/mol | unfolding enthalpy (van 't Hoff) [9]: 88 kcal/mol | heat capacity change of unfolding [10]: 2 kcal/mol/K | unfolding enthalpy (calorimetric) [10]: 178 kcal/mol and 106 kcal/mol | unfolding enthalpy (van 't Hoff) [10]: 72 kcal/mol
